The numbers were not newly measured in paper PMC6958331, which cites them from elsewhere.

The target in this data set is hemopexin (Homo sapiens) (UniProt P02790).
UniProt P02790, sequence (P02790 24-462): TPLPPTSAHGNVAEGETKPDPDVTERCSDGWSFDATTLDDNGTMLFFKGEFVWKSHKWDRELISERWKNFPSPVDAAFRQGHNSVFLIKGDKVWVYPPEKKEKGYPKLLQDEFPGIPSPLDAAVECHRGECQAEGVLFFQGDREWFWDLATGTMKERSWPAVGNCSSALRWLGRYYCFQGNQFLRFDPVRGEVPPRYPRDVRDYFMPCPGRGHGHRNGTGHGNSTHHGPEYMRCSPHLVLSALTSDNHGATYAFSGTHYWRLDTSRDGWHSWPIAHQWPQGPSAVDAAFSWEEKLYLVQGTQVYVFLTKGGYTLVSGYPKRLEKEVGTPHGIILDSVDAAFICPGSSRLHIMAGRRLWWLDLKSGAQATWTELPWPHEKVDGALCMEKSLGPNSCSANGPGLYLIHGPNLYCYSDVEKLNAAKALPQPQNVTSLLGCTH

LRP1/CD91 (from UniProt Q07954): the Kd (commonly a measure of binding affinity in units of concentration) was 4 nM.
